Experimental data taken from the DeepSol protein solubility set.

Assay: soluble on expression in E. coli; label from the status in PepcDB or PDB records

Sequence | soluble on expression in E. coli
MAENIPLRVQFKRMKAAEWASSDVVLLEGEIGFETDTGFAKFGDGQNTFSKLKYLTGPKGPKGDTGLQGKTGGTGSRGPAGKPGTTDYDQLQNKPDLGAFAQKEETNSKITKLESSKADKNAVYLKAESNAKLDEKLNLKGGVMTGQLQFKPNSGIKPSSSVGGAINIDMSKSEGAAMVMYTNKDTTDGPLMILRSNKDTFDQSVQFVDYKGTTNAVNIVMRQPTTPNFSSALNITSANEGGSAMQIRGVEKALGTLKITHENPSVDKEYDKNAAALSIDIVKKQKGGKGTAAQGIYINSTSGTTGKLLRIRNLNDDKFYVKPDGGFYAKETSQIDGNLKLKDPIANDHAATKAYVDGEVEKLKALLAAKQM | not soluble
MAEQSDEAVKYYTLEEIQKHNHSKSTWLILHHKVYDLTKFLEEHPGGEEVLREQAGGDATENFEDVGHSTDAREMSKTFIIGELHPDDRPKLNKPPEP | soluble
MAESYEEWKSFALKLDEETGAQEWKFDNSSPYFDAELISYRYTLLKRYRQQHRTLDLIYLLKEGLTYDIANIGHPMLFAATHVGTKKLIEDYIEEVSQSLAYIASSECITFQRKEKIEFFENCEKAYGQPALMFSGGATLGLFHTGVCKALIEQDLMPKVLSGSSAGAIMTGMLGISASEDIQNLLNGEQFFSDAFHFRKLRELIKGNGGIADVHYLKKFLIENLGDLTFEEAFKKSGLNINVAVAPYDATENPRIMNAIMTPNVLVWSAVLASCAVPVLFPPVRLTSKRYDGEHTPYMANTKWVDGSVRSDFPQERMARLYNLNYTIASQVNPHVVPFMQDDARRFRKDVLSWPERILRRQGKVLSMGLMDFTRQRLGAISPVRRLLDHGYGVVGQRYYGDVNIIAKYSLKHYAYTLQNPRPHLFKRLQREGERATWPKISSIETHARIGKTIQHCLEVLRFEEKKLEHHHHHH | not soluble
MAETKIVVGPQPFSVGEEYPWLAERDEDGAVVTFTGKVRNHNLGDSVNALTLEHYPGMTEKALAEIVDEARNRWPLGRVTVIHRIGELWPGDEIVFVGVTSAHRSSAFEAGQFIMDYLKTRAPFWKREATPEGDRWVEARESDQQAAKRW | soluble
MAEVITVKQTNMENIYECEFNDGSFRLCTRNLVPNFNVYGERLIKYEGVEYREWNAFRSKLAGAILKGLKTNPIRKGTKVLYLGAASGTTISHVSDIIELNGKAYGVEFSPRVVRELLLVAQRRPNIFPLLADARFPQSYKSVVENVDVLYVDIAQPDQTDIAIYNAKFFLKVNGDMLLVIKARSIDVTKDPKEIYKTEVEKLENSNFETIQIINLDPYDKDHAIVLSKYKG | soluble
MAFEGLSERLQATMQKMRGKGKLTEADIKIMMREVRLALLEADVNFKVVKEFIKTVSERALGSDVMQSLTPGQQVIKIVQDELTQLMGGENTSINMSNKPPTVVMMVGLQGAGKTTTAGKLALLMRKKYNKKPMLVAADIYRPAAINQLQTVGKQIDIPVYSEGDQVKPQQIVTNALKHAKEEHLDFVIIDTAGRLHIDEALMNELKEVKDIAKPNEIMLVVDSMTGQDAVNVAESFDDQLDVTGVTLTKLDGDTRGGAALSIRSVTQKPIKFVGMSEKLDGLELFHPERMASRILGMGDVLSLIEKAQQDVDQEKAKDLEKKMRESSFTLDDFLEQLDQVKNLGPLDDIMKMIPGMNKMKGLDKLNMSEKQIDHIKAIIQSMTPAERNNPDTLNVSRKKRIAKGSGRSLQEVNRLMKQFNDMKKMMKQFTGGGKGKKGKRNQMQNMLKGMNLPF | not soluble
MAFNTRANAEKYLATCYNFVPAAANLDHNSGLICGGEMWYLKPESHYYKNITSFNIARGMQNSNDPLLNYWDGGQGGYNIFRGIHECNIFIDNIDRVPDMRMEEKNKWKAEVMTLKAYYIYYLMLHYGPIPLLKENISVEADLDMMQLERETINDIVTYTTDLLDEAMNIPSGLTFNVTSPRTELGRITLPIAKAIKAKLLILAASPLFNGNTMYAEFVNSEGIPFFDQEYKKEKWEAAAAACLDAINTAHEAGASLYKFDEKLNYTPSSTLQQELTLRNTITGRFNSEIIWALGSNATDGIQNLCQAHLTSYSLGNRMIRSCSQLVPSLEIVEQFYTANGVPMDEDKDYEYENRYKLTTTPEDDPIHFTPNYTTIKMHLNREPRFYAYIGFDGGKWFSIECCNDNETSSYPIKSKKGDIAGVSDELYSPTGYFTKKLVSYQNVNTSATNINYVYSFPIIRLSDLYLLYAEALNELNETPTTDVYYYVQQVRNKAGLDEGGSLVNTWRNHSNRPDKPTTQRGMREIIQKERMIELAFEGHRYHDVRRWKLGSTYLNTQIKGWSVLEQDPEYFYNVRVLFTRKFMPRDYLWPIKTNSINRNPKLVQNPQW | not soluble
MAFPAGFGWAAATAAYQVEGGWDADGKGPCVWDTFTHQGGERVFKNQTGDVACGSYTLWEEDLKCIKQLGLTHYRFSLSWSRLLPDGTTGFINQKGIDYYNKIIDDLLKNGVTPIVTLYHFDLPQTLEDQGGWLSEAIIESFDKYAQFCFSTFGDRVKQWITINEANVLSVMSYDLGMFPPGIPHFGTGGYQAAHNLIKAHARSWHSYDSLFRKKQKGMVSLSLFAVWLEPADPNSVSDQEAAKRAITFHLDLFAKPIFIDGDYPEVVKSQIASMSQKQGYPSSRLPEFTEEEKKMIKGTADFFAVQYYTTRLIKYQENKKGELGILQDAEIEFFPDPSWKNVDWIYVVPWGVCKLLKYIKDTYNNPVIYITENGFPQSDPAPLDDTQRWEYFRQTFQELFKAIQLDKVNLQVYCAWSLLDNFEWNQGYSSRFGLFHVDFEDPARPRVPYTSAKEYAKIIRNNGLEAHL | soluble
MAFVPPQAGYDRAITVFSPDGRLFQVNYAREAVKRGATAVGVKCNEGVVLAVEKRITSRLIEPESYEKIFQIDDHIAAASSGIIADARVLVNRARLEAQIHRLTYGEPAPLAVIVKKICDLKQMHTQYGGVRPFGAALLMAGVNEKPELYETDPSGAYFAWKAVAIGSGRNTAMAIFEEKYKDDMSLEEAIKLAIFALAKTMEKPSAENIEVAIITVKDKKFRKLSREEIEKYLNEVMKEVEEEEVKEKEEDYSELDSHY | soluble
MAGAGGQRNSEHVLCDACYFEEFDLVDAPDTIQVRVCSRCGAVHKGNRWVDIGAEDYTDIAVEQVSEALGIHVDAQSVAWQVAPEQLDKNNIRMHAEFSGVIRGTPVTEEVTVPVRISRQTCKRCGKIAGGSFASIVQVRADGRDPTDDERERAEEIAQEYVAAREETGDRNAFITETKSVDDGLDMKISTNQMGLGIAKRITAQLGGSYSDSRRLISEDEDGQELYRMTYAVRLPRYRQGEVIDPEDGDGPVLVRSVQGNLKGVRLATGEDYEASFEAGETPDARRLGFREDGQQTTLVAIEDERAVQVLDPETFESKTVPRPDYLDIDADEVPVLKSHAGLHILPAADADTDELEHHHHHH | not soluble
MAGDPMPKNKILIYLLSTTLVLPTLVSPTAYADTPQKDTTAKTTSHDSKKSNDDETSKDTTSKDIDKADNNNTSNQDNNDKKFKTIDDSTSDSNNIIDFIYKNLPQTNINQLLTKNKYDDNYSLTTLIQNLFNLNSDISDYEQPRNGEKSTNDSNKNSDNSIKNDTDTQSSKQDKADNQKAPKSNNTKPSTSNKQPNSPKPTQPNQSNSQPASDDKANQKSSSKDNQSMSDSALDSILDQYSEDAKKTQKDYASQSKKDKNEKSNTKNPQLPTQDELKHKSKPAQSFNNDVNQKDTRATSLFETDPSISNNDDSGQFNVVDSKDTRQFVKSIAKDAHRIGQDNDIYASVMIAQAILESDSGRSALAKSPNHNLFGIKGAFEGNSVPFNTLEADGNKLYSINAGFRKYPSTKESLKDYSDLIKNGIDGNRTIYKPTWKSEADSYKDATSHLSKTYATDPNYAKKLNSIIKHYQLTQFDDERMPDLDKYERSIKDYDDSSDEFKPFREVSDSMPYPHGQCTWYVYNRMKQFGTSISGDLGDAHNWNNRAQYRDYQVSHTPKRHAAVVFEAGQFGADQHYGHVAFVEKVNSDGSIVISESNVKGLGIISHRTINAAAAEELSYITGKLEHHHHHH | soluble
MAGDPMTPTQNVPEDRIQIGQLRSAYGLNGWLWVYSNTEPMSNMFDYLPWFIETKAGWQTVDVKRWKPHGKGLVVSLKNVSDRNAAESLIGSTIWVAKSQLPKTDVDEYYWSDLKGLTVLGLDEEEQEVNLGQIHELFETGANDVMVVRATADSVDAEERMIPWHKDVVQRVDLEAGRIYVNWGVDYLEHHHHHH | soluble
